Test results reported in article PMC10907249.

Molecular target: HLA-A*02:01 refolded with the photocleavable peptide photoKV9, UV-exposed (A*02/photoKV9)
Assay: fluorescence polarisation

“US11 peptide S28V_WT (amino acids 17 to 44) (from UniProt P09727 17-44)” showed an IC50 of 3.83 µM.
